Target: murine PDL-1 (murine) (UniProt Q9EP73)
Experiment: bead based FACS of purified EVADER vectors with fluorescent-labelled antibody

Sequence of UniProt Q9EP73 (Q9EP73 19-290): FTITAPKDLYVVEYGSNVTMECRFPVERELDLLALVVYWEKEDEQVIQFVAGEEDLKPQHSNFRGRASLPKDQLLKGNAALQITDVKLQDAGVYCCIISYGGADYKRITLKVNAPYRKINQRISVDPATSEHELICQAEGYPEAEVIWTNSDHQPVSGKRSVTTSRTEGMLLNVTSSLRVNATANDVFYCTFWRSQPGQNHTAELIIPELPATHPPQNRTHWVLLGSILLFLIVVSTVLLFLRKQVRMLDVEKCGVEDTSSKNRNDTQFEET

anti-murine PDL-1 (anti-PDL-1-PE-A, Abcam catalog number ab213480) (antibody)
percent of EVADER vector particles positive (level on the surface): 75.3%

Reference: patent publication US20200338216A1
